The labels stand for the following.
T1: WT-ZnT2-YC (human, UniProt Q9BRI3 1-372, Carries a C-terminal YC reporter (non-fluorescent C-terminal half of YFP), not included in the letters.)
T1 construct: BiFC construct expressed in living MCF-7 cells; not shown: YC, the C-terminal half of YFP, and any linker to it
T1 sequence: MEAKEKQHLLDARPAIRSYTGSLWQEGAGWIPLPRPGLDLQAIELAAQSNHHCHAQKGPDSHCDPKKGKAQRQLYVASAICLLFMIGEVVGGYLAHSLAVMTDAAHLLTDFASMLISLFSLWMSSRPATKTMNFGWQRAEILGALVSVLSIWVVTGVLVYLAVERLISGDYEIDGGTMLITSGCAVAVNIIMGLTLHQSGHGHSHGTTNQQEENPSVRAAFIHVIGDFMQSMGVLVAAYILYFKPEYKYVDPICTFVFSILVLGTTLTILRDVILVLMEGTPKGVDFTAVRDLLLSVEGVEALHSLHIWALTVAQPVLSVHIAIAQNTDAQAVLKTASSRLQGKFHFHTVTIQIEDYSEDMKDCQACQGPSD

B1: WT-ZnT2-YN (other)
chain: T1 sequence
modifications: Carries a C-terminal YN reporter (non-fluorescent N-terminal half of YFP), not included in the letters.
notes: BiFC construct expressed in living MCF-7 cells; not shown: YN, the N-terminal half of YFP, and any linker to it
B2: Δ9AA-ZnT2-YN (other)
chain: MEAKEKQHLLDARPAIRSYTGSLWQEGAGWIPLPRPGLDLQAIELAAQSNHHCHAQKGPDSHCDPKKGKAQRQLYVASAICLLFMIGEVVGGYLAHSLAVMTDAAHLLTDFASMLISLFSLWMSSRPATKTMNFGWQRAEILGALVSVLSIWVVTGVLVYLAVERLISGDYEIDGGTMLITSGCAVAVNIIMGLTLHQSGHGHSHGTTNQQEENPSVRAAFIHVIGDFMQSMGVLVAAYILYFKPEYKYVDPICTFVFSILVLGTTLTILRDVILVLMEAVRDLLLSVEGVEALHSLHIWALTVAQPVLSVHIAIAQNTDAQAVLKTASSRLQGKFHFHTVTIQIEDYSEDMKDCQACQGPSD
modifications: Carries a C-terminal YN reporter (non-fluorescent N-terminal half of YFP), not included in the letters.
notes: Deletion introduced into the ZnT2 BiFC plasmid by site-directed mutagenesis (27 bp, 839_865del); also called Δ9AA-YN; truncated Δ9AA-ZnT2; not shown: YN, the N-terminal half of YFP, and any linker to it
B3: Δ9AA-ZnT2-YC (other)
chain: B2 chain
modifications: Carries a C-terminal YC reporter (non-fluorescent C-terminal half of YFP), not included in the letters.
notes: Deletion introduced into the ZnT2 BiFC plasmid by site-directed mutagenesis (27 bp, 839_865del); also called Δ9AA-YC; truncated Δ9AA-ZnT2; not shown: YC, the C-terminal half of YFP, and any linker to it

One test addresses T2, β2AR-YC (UniProt P07550 1-413).
T2 construct: whole, on cells; Negative control partner in the BiFC assay; not shown: YC: non-fluorescent C-terminal half of YFP (BiFC tag)
Description: BiFC in MCF-7 cells, YFP fluorescence by flow cytometry. The protocol:
(§1) The ability of the alternative 3′ splice variant (Δ9AA) ZnT2 to form homodimers was evaluated using the bimolecular fluorescence complementation (BiFC) assay that has been previously applied for the detection of in situ dimerization of ZnT2 and other ZnTs in living cells. High YFP fluorescence intensity indicates a strong interaction between the two tagged proteins, as this enables the refolding of the two non-fluorescent halves of YFP (YN and YC) into a fully fluorescent protein.

Test [1] concerns the target T1, WT-ZnT2-YC. Description: western blot of BiFC transfectants (SDS-metastable dimers), anti-ZnT2 antibody. The protocol:
MCF-7 cells were transiently transfected with the designated plasmids (3 μg in single construct transfection and 1.5 μg DNA of each construct in co-transfections). Membrane proteins were isolated on ice using an extraction buffer as previously described (Golan Y., et al., Journal of Biological Chemistry, 2015, 290(14):9050-63). Briefly, proteins (30 μg) were resolved by electrophoresis on 10% polyacrylamide gels, electroblotted onto cellulose nitrate membranes, blocked with Tris-buffered saline (TBS)-milk and reacted with mouse anti-ZnT2 monoclonal antibody (at 1:2,000 dilution, 1 hr at room temperature; generously provided by Prof T Kambe, Kyoto University, Kyoto, Japan). […] Similarly, actual protein loading onto the SDS-PAGE gels was confirmed by blot reprobing with a rabbit polyclonal antibody against the a subunit of Na⁺/K⁺ ATPase (KETTY at 1:3,000 dilution; kindly provided by Prof. S. J. D. Karlish, Weizmann Institute of Science, Rehovot, Israel) and detected with horseradish peroxidase-conjugated goat anti-rabbit IgG (1:15,000 dilution; Jackson Immunoresearch Labs, West Grove, Pa.).
The dimerization results were further confirmed by western blot analysis. […] However, in contrast to the ZnT2 protein which was predominantly present in the homodimer form (FIG. 4C, uppermost band), upon co-transfection of Δ9AA-YN+Δ9AA-YC no homodimers were detected (FIG. 4C). […]
In general terms: A western blot detects proteins with antibodies after separation by electrophoresis.

In the test “Δ9AA-ZnT2-YC” the target is B3. Briefly: BiFC in MCF-7 cells, YFP fluorescence by flow cytometry. The protocol:
as §1
For orientation: Flow cytometry measures light scatter and fluorescence of single cells or particles in a stream.

Test [2] concerns the target T1, WT-ZnT2-YC. Described as above. On the procedure:
as §1

The test “WT-ZnT2-YN” concerns the target B1. The test is described as above. The protocol: as §1

Turning to B1, the binding result is listed as “no binding” with β2AR-YC and “binds” with WT-ZnT2-YC [1]. With B2, the binding result with Δ9AA-ZnT2-YC and with WT-ZnT2-YC [2] was “no binding” throughout. Take B3: in the test with WT-ZnT2-YN, the binding result is given as “no binding”.

For the origin of these results see US20200040396A1 (TECHNION RESEARCH AND DEVELOPMENT FOUNDATION, published 2020).
